Assay results from patent publication US20230121197A1, “ANTIBODIES SPECIFICALLY BINDING THE CARBOXYMETHYLATED CATALYTIC SUBUNIT OF PROTEIN PHOSPHATASE 2A” (Medizinische Universität Wien, priority 2020, published 2023).
No end group written: not given here.

How the values were obtained:
[1] = target: T1, C(βA)TPDYFL-CH3 peptide (carboxymethylated PP2Ac C-terminus) (Homo sapiens, UniProt P67775); assay: ELISA screening of hybridoma supernatants with C(βA)TPDYFL peptides; type: binding; conditions: undiluted supernatants, peptides at 3 μg/ml
T1 construct: purchased PiChem GmbH (Graz, Austria)
Method: In parallel to the immunoblotting screening, hybridoma supernatants were tested for the presence of TPDYFL-CH3 (SEQ ID NO:1) specific IgG antibodies by ELISA. Specifically, flat-bottom Nunc-Immuno Medisorp 96-well ELISA plates (Thermo; 467320) were coated over night at 4° C. with 50 μl of either a peptide of the sequence C(βA)TPDYFL (SEQ ID NO:48) at a concentration of 3 μg/ml in 10 mM sodium phosphate buffer pH 7.0 or with a peptide of the sequence C(βA)TPDYFL-CH3 (SEQ ID NO:48) at a concentration of 3 μg/ml in 10 mM sodium phosphate buffer pH 7.0. The wells were washed once with PBS, blocked with 180 μl of 2% bovine serum albumin (Sigma, A9647) in PBS for 1 hour at RT and washed again once with PBS. […] Bound antibodies were detected colorimetrically by addition of 50 μl of 33 μg/ml […] (TMB) (Sigma, T2885) in 0.1 M sodium acetate pH 6.0 and 0.01% H2O2 (Sigma, H1009). The colorimetric reaction was stopped after 28 min by addition of 50 μl 0.5 M H2SO4, and absorbance was measured at 450 nm with a Perkin Elmer Wallac Victor 2 1420 Multilabel Counter.

[2] = target: PP2Ac C-terminal peptide pT304-meL309, ac-HVTRRpTPDYFL-CH3 (human); assay: ELISA, peptide dilution series, supernatant 1:50
[3] = target: T2, PP6c C-terminal peptide L305, ac-IPPRTTTPYFL (non-methylated) (human); assay: ELISA, values normalized to meL309, Neg = TBS only, N=7
T2 construct: also called PP6 L305
T2 peptide: Ac-IPPRTTTPYFL
From the text: (§1) FIG. 9: Monoclonal antibody 7C10-C5 detects α-carboxymethylated PP2Ac C-terminal peptides with >10-fold higher signal intensity than the α-carboxymethylated PP4c and PP6c C-terminal peptides in ELISA. Nunc Medisorp 96-well ELISA flat-bottom plates were coated with PP2Ac peptides L309 (ac-[…]) (SEQ ID NO:18), meL309 (ac-[…]-CH3) (SEQ ID NO:18), PP4c peptides L307 (ac-[…]) (SEQ ID NO:20), meL307 (ac-[…]-CH₃) (SEQ ID NO:20), PP6c peptides L305 (ac-[…]) (SEQ ID NO:22) or meL305 (ac-[…]-CH₃) (SEQ ID NO:22) at 2 μg/ml in TBS or TBS only (Neg) at 4° C. over-night. After washing once with TBS, the wells were incubated with 2% BSA in TBS for 1 h at RT. After washing once with TBS, the wells were incubated with single clone hybridoma cell culture supernatant, clone 7C10-C5 1:50 for 1 h at RT. After washing twice with TBS, wells were incubated with anti-mouse and anti rabbit HRP-coupled secondary antibody for 1 h at RT, followed by washing 3× in PBS. Bound antibodies were detected by colorimetric reaction with 3,3′,5,5′-Tetramethylbenzidine as substrate, and absorbance was measured at 450 nm. Values were normalized to meL309 which was set to 1. Average and standard deviation of N=7 experiments are shown. […] Statistical significance was assessed using ANOVA followed by Tukey's HSD as a post-hoc test. […]

[4] = target: T3, PP6c C-terminal peptide meL305, ac-IPPRTTTPYFL-CH3 (α-carboxymethylated) (human, SMILES …); assay: as above
T3 construct: also called PP6 meLeu305
T3 peptide: Ac-IPPRTTTPYFL-OMe
From the text: as §1

[5] = target: T4, mouse HA PP4c, carboxymethylated (immunoprecipitated from NIH3T3 cells) (mouse) (UniProt P97470); assay: Western blot quantification, signal normalized to HA level, HA-PP2A set to 1, N=3
T4 sequence (C-terminal leucine α-carboxyl methyl ester (cellular methylation), looked up): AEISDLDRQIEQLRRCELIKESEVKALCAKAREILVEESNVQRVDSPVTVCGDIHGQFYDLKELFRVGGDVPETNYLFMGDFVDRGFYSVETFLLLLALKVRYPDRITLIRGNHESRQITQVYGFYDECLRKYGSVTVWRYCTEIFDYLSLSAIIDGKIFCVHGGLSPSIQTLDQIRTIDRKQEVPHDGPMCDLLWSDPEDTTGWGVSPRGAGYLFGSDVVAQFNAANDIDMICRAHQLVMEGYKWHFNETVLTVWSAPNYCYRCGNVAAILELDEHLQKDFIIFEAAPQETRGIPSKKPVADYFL

[6] = target: T5, PP4c C-terminal peptide meL307, ac-PSKKPVADYFL-CH3 (α-carboxymethylated) (human, SMILES …); assay: ELISA, peptide coated at 2 µg/ml, hybridoma supernatant 1:50, values normalized to meL309, N=7
T5 construct: also called mePP4c; PP4 Me
T5 peptide: Ac-PSKKPVADYFL-OMe
From the text: as §1

[7] = target: T3, PP6c C-terminal peptide meL305, …; assay: as above
From the text: as §1

B1: 7C10-C5 monoclonal antibody (antibody, V domains shown)
VH: DVQLQESGPGLVKPSQSLSLTCSVTGYSITSGYYWNWIRQFPGNKLEWMGYISYDGSNNYNPSLKNRISITRDTSKNQFFLKLNSVTTEDTATYYCAGRFAYWGQGTLVTVSA
VL: DVLMTQTPLSLPVSLGDQASISCRSSQSIVHSNGNTYLEWYLQKPGQSPKLLIYKVSNRFSGVPDRFSGSGSGTDFTLKINRVEAEDLGVYYCFQGSHVPWTFGGGTKLEIK
notes: Used as hybridoma culture supernatant (ELISA, Western blot, IHC) or at 50 µg/mL (SPR); also called 7C10 X63; clone 7C10-C5
detection of carboxymethylated versus non-carboxymethylated peptide [1]: detected the carboxymethylated peptide | fold detection difference against the carboxymethylated peptide (meL309) at lower peptide concentrations [2]: 4 fold | binding result [3]: no binding | binding result [4]: no binding | 7C10/HA blot signal relative to HA-PP2A = 1 [5]: 0.01 7C10/HA | fold-change of ELISA signal, meL309 (PP2A) over meL307 (PP4) [6]: 10.1 fold | fold-change of ELISA signal, meL309 (PP2A) over meL305 (PP6) [7]: 16.2 fold
